Experimental data as given in patent US20160053274.

Tests used:
Assay in all cases: cell_activity
[1] = test system: TALENbar86 monomer 2 (artificial); conditions: tobacco protoplasts, as pair with monomer 1, 13 nt spacer, foreign DNA pTIB235; printed half-site differs from full site as printed (AGCACGGTCAACTTCCCT)
[2] = test system: TALENbar334 monomer 1 (artificial); conditions: tobacco protoplasts, as pair with monomer 2, 12 nt spacer, foreign DNA pTIB235; 94.35 with pTCV224, 94.09 with pTCV225
[3] = test system: TALENbar86 monomer 1 (artificial); conditions: tobacco protoplasts, as pair with monomer 2, 13 nt spacer, foreign DNA pTIB235; 19.6 with pTCV224, 25.6 with pTCV225
[4] = test system: bar meganuclease (cleaving at bar position 479) (artificial); conditions: tobacco protoplasts, targeted insertion with repair DNA pTCV225 (3/164 calli)
[5] = test system: TALENbar334 monomer 2 (artificial); conditions: tobacco protoplasts, as pair with monomer 1, 12 nt spacer, foreign DNA pTIB235; 94.35 with pTCV224, 94.09 with pTCV225

With “ACGGAAGTTGACCGTGCT (double strand) [bar86 half-site 2]” the activity [1] was 6.25 % mutation.

“CCACGCTCTACACCCACC (double strand) [bar334 half-site 1]” showed an activity [2] of 76 % mutation.

“CTGCACCATCGTCAACCA (double strand) [bar86 half-site 1]” was tested, and the activity [3] was 6.25 % mutation.

With “GGGAACTGGCATGACGTGGGTTTC (double strand) [bar meganuclease site]” the activity [4] was 1.8 % TSI.

In the case of “TGAAGCCCTGTGCCTCCA (double strand) [bar334 half-site 2]”, the activity [5] was 76 % mutation.
